Results as given in publication PMC5173319, “Crenactin forms actin-like double helical filaments regulated by arcadin-2” (eLife, 2016).

Key:
[1] = molecular target: Pyrobaculum calidifontis arcadin-1 (Pyrobaculum calidifontis); assay: AUC; sedimentation equilibrium, arcadin-1 at 49.8, 99.5 and 199 µM, 7800, 11800 and 15,000 rpm, 20°C, 25 mM Tris-HCl pH 8.0, 100 mM NaCl, 1 mM EDTA; idealised single-species model
[2] = molecular target: Pyrobaculum calidifontis crenactin (Pyrobaculum calidifontis) (UniProt A3MWN5); assay: SPR; crenactin immobilised by amide coupling on CM5 chip (~2300 RU), Biacore T200, PBS-0.005% Tween 20, 20°C; arcadin-1 in 1:3 dilution series from 36.7 µM; equilibrium response fitted to a single site model
Sequence of Pyrobaculum calidifontis crenactin (Pyrobaculum calidifontis) (A3MWN5 whole entry): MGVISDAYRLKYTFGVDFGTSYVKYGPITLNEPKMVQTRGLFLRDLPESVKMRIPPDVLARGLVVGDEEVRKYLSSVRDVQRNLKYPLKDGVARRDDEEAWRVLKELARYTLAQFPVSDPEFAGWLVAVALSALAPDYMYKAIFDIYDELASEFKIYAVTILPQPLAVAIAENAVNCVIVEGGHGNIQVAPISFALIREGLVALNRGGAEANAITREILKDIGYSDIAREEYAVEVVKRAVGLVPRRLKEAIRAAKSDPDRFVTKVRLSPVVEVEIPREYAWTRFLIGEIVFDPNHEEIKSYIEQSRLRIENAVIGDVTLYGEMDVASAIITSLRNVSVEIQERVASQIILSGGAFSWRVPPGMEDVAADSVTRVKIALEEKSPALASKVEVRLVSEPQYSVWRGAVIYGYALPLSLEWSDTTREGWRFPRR

Substance: Pyrobaculum calidifontis arcadin-1 (natural protein)
- stoichiometry N [1]: 8
- Kd [2]: 15 µM
